From patent US9605283B2, “Microorganism modified for the production of 1,3-propanediol” (INSTITUT NATIONAL DES SCIENCES APPLIQUÉES, priority 2012, dated 2017)
Substitutions are numbered along the chain they refer to. In names and notes the source's numbering stands.

B1: Zm-Pdc: pyruvate decarboxylase of Zymomonas mobilis, SEQ ID No. 128 (protein, listed as Zymomonas mobilis)
chain: MSYTVGTYLAERLVQIGLKHHFAVAGDYNLVLLDNLLLNKNMEQVYCCNELNCGFSAEGYARAKGAAAAVVTYSVGALSAFDAIGGAYAENLPVILISGAPNNNDHAAGHVLHHALGKTDYHYQLEMAKNITAAAEAIYTPEEAPAKIDHVIKTALREKKPVYLEIACNIASMPCAAPGPASALFNDEASDEASLNAAVEETLKFIANRDKVAVLVGSKLRAAGAEEAAVKFADALGGAVATMAAAKSFFPEENPHYIGTSWGEVSYPGVEKTMKEADAVIALAPVFNDYSTTGWTDIPDPKKLVLAEPRSVVVNGIRFPSVHLKDYLTRLAQKVSKKTGALDFFKSLNAGELKKAAPADPSAPLVNAEIARQVEALLTPNTTVIAETGDSWFNAQRMKLPNGARVEYEMQWGHIGWSVPAAFGYAVGAPERRNILMVGDGSFQLTAQEVAQMVRLKLPVIIFLINNYGYTIEVMIHDGPYNNIKNWDYAGLMEVFNGNGGYDSGAGKGLKAKTGGELAEAIKVALANTDGPTLIECFIGREDCTEELVKWGKRVAAANSRKPVNKLL
B2: Zm-Pdc W392L: Z. mobilis pyruvate decarboxylase mutant W392L, SEQ ID No. 192 (protein, listed as Zymomonas mobilis)
chain: B1 chain with W392L
B3: Zm-Pdc W392Q: Z. mobilis pyruvate decarboxylase mutant W392Q, SEQ ID No. 190 (protein, listed as Zymomonas mobilis)
chain: B1 chain with W392Q
B4: Sc-Pdc1: pyruvate decarboxylase of Saccharomyces cerevisiae, SEQ ID No. 208 (protein, listed as Saccharomyces cerevisiae)
chain: MSEITLGKYLFERLKQVNVNTVFGLPGDFNLSLLDKIYEVEGMRWAGNANELNAAYAADGYARIKGMSCIITTFGVGELSALNGIAGSYAEHVGVLHVVGVPSISAQAKQLLLHHTLGNGDFTVFHRMSANISETTAMITDIATAPAEIDRCIRTTYVTQRPVYLGLPANLVDLNVPAKLLQTPIDMSLKPNDAESEKEVIDTILALVKDAKNPVILADACCSRHDVKAETKKLIDLTQFPAFVTPMGKGSIDEQHPRYGGVYVGTLSKPEVKEAVESADLILSVGALLSDFNTGSFSYSYKTKNIVEFHSDHMKIRNATFPGVQMKFVLQKLLTTIADAAKGYKPVAVPARTPANAAVPASTPLKQEWMWNQLGNFLQEGDVVIAETGTSAFGINQTTFPNNTYGISQVLWGSIGFTTGATLGAAFAAEEIDPKKRVILFIGDGSLQLTVQEISTMIRWGLKPYLFVLNNDGYTIEKLIHGPKAQYNEIQGWDHLSLLPTFGAKDYETHRVATTGEWDKLTQDKSFNDNSKIRMIEIMLPVFDAPQNLVEQAKLTAATNAKQ
B5: Bs-MdhR87C: B. subtilis malate dehydrogenase mutant R87C, SEQ ID No. 154 (protein, listed as Bacillus subtilis)
chain: MGNTRKKVSVIGAGFTGATTAFLIAQKELADVVLVDIPQLENPTKGKALDMLEASPVQGFDAKITGTSNYEDTAGSDIVVITAGIACKPGMSRDDLVSTNEKIMRSVTQEIVKYSPDSIIVVLTNPVDAMTYAVYKESGFPKERVIGQSGVLDTARFRTFVAEELNLSVKDVTGFVLGGHGDDMVPLVRYSYAGGIPLETLIPKERIDAIVERTRKGGGEIVNLLGNGSAYYAPAASLTEMVEAILKDQRRVLPTIAYLEGEYGYEGIYLGVPTIVGGNGLEQIIELELTDYERAQLNKSVESVKNVMKVLS
B6: Ec-Mdh: (L)-malate dehydrogenase of Escherichia coli, wild-type, SEQ ID No. 124 (protein, listed as Escherichia coli)
chain: MKVAVLGAAGGIGQALALLLKTQLPSGSELSLYDIAPVTPGVAVDLSHIPTAVKIKGFSGEDATPALEGADVVLISAGVARKPGMDRSDLFNVNAGIVKNLVQQVAKTCPKACIGIITNPVNTTVAIAAEVLKKAGVYDKNKLFGVTTLDIIRSNTFVAELKGKQPGEVEVPVIGGHSGVTILPLLSQVPGVSFTEQEVADLTKRIQNAGTEVVEAKAGGGSATLSMGQAAARFGLSLVRALQGEQGVVECAYVEGDGQYARFFSQPLLLGKNGVEERKSIGTLSAFEQNALEGMLDTLKKDIALGEEFVNK
B7: Ec-MdhR81A I12V: E. coli malate dehydrogenase mutant R81A I12V, SEQ ID No. 162 (protein, listed as Escherichia coli)
chain: B6 chain with I12V, R81A
B8: Ec-MdhR81A D86S: E. coli malate dehydrogenase mutant R81A D86S, SEQ ID No. 170 (protein, listed as Escherichia coli)
chain: B6 chain with R81A, D86S
B9: Ec-MdhR81A M85Q: E. coli malate dehydrogenase mutant R81A M85Q, SEQ ID No. 158 (protein, listed as Escherichia coli)
chain: B6 chain with R81A, M85Q
B10: Ec-MdhR81A: E. coli malate dehydrogenase mutant R81A, SEQ ID No. 156 (protein, listed as Escherichia coli)
chain: B6 chain with R81A
B11: Ec-MdhR81A M85E I12V: E. coli malate dehydrogenase mutant R81A M85E I12V, SEQ ID No. 166 (protein, listed as Escherichia coli)
chain: B6 chain with I12V, R81A, M85E
B12: Ec-MdhR81A G179D: E. coli malate dehydrogenase mutant R81A G179D, SEQ ID No. 168 (protein, listed as Escherichia coli)
chain: B6 chain with R81A, G179D
B13: Ec-MdhR81A M85Q I12V: E. coli malate dehydrogenase mutant R81A M85Q I12V, SEQ ID No. 164 (protein, listed as Escherichia coli)
chain: B6 chain with I12V, R81A, M85Q
B14: Ec-MdhR81A D865 G179D: E. coli malate dehydrogenase mutant R81A D86S G179D (printed D865), SEQ ID No 172 (protein, listed as Escherichia coli)
chain: B6 chain with R81A, D86S, G179D
B15: Ec-MdhR81A M85E: E. coli malate dehydrogenase mutant R81A M85E, SEQ ID No 160 (protein, listed as Escherichia coli)
chain: B6 chain with R81A, M85E

Key:
Type in all cases: biochemical
[1] = Pyruvate decarboxylase activity (coupled to yeast alcohol dehydrogenase)
Procedure: OHB decarboxylase activity was assayed by coupling the decarboxylase activity to the NADPH-dependent reduction of the released 3-hydroxypropanal by purified aldehyde reductase, YqhD, from E. coli. The decarboxylation of pyruvate was coupled to the NADH-dependent reduction of acetaldehyde catalysed by yeast alcohol dehydrogenase. Branched-chain alpha-ketoacid decarboxylase activity was measured on 4-methyl-2-oxovaleric acid by coupling to the NADH-dependent reduction of 3-methylbutanal catalysed by horse liver alcohol dehydrogenase. […]

[2] = OHB decarboxylase activity (coupled to YqhD, NADPH); details: for OHB decarboxylase activity (in words): wild-type enzymes; for Effect of mutation on activity and/or specificity for OHB (in words): versus wild-type enzyme
Procedure: OHB decarboxylase activity was assayed by coupling the decarboxylase activity to the NADPH-dependent reduction of the released 3-hydroxypropanal by purified aldehyde reductase, YqhD, from E. coli. The decarboxylation of pyruvate was coupled to the NADH-dependent reduction of acetaldehyde catalysed by yeast alcohol dehydrogenase. Branched-chain alpha-ketoacid decarboxylase activity was measured on 4-methyl-2-oxovaleric acid by coupling to the NADH-dependent reduction of 3-methylbutanal catalysed by horse liver alcohol dehydrogenase. […] Reactions were started by adding 20 mM 2-oxo-4-hydroxybutyrate (OHB), 10 mM 4-methyl-2-oxovaleric acid (MOV), or 5 mM pyruvate.

[3] = Malate dehydrogenase activity (natural substrate); details: for Max. specific activity, malate: activity measured at 50 mM malate
[4] = DHB dehydrogenase activity of cytosolic enzymes (DHB-dependent reduction of NAD+)
Procedure: Activity of the cytosolic DHB dehydrogenases (Ec-Mdh, Bs-Mdh, Ll-LdhA) was assayed by following the DHB-dependent reduction of NAD^+.
The reaction mixture contained 60 mM Hepes (pH 8), 50 mM potassium chloride, 5 mM MgCl2, 10 mM NAD, (optionally, 5 mM fructose-1,6-bisphosphate (F16bP)) (all products from Sigma), and appropriate amounts of purified enzyme or cell extract. Reactions were started by adding 50 mM (L)-2,4-dihydroxybutyrate (Rhodia).
All enzymatic assays were carried out at 37° C. in 96-well flat bottomed microtiter plates in a final volume of 250 μL. The reactions were followed by the characteristic absorption of NADH at 340 nm (εNADH=6.22 mM^−1 cm^−1) or the absorbtion of DCIP at 655 nm (εDCIP=5.9 mM^−1 cm^−1) in a microplate reader (BioRad 680XR).

[5] = natural substrate pyruvate, Table 8
[6] = when not saturated, activity estimated at 20 mM substrate, Table 8
[7] = activity measured at 50 mM pyruvate (Pdc mutants), Table 10
[8] = activity measured at 20 mM OHB, Table 10
[9] = activity measured at 50 mM DHB, Table 4

Molecule	Max. specific activity, malate ([3]; Table 4) [µmol/mg/min]	Max. specific activity, DHB [4, 9] [µmol/mg/min]	also measured
B1	–	–	Max. specific activity, Natural substrate [1, 5]: 65 µmol/mg/min; Max. specific activity, OHB [2, 6]: 0.052 µmol/mg/min; OHB decarboxylase activity (in words) [2]: significant OHB decarboxylase activity
B2	–	–	Max. specific activity, Natural substrate [1, 7]: 0.09 µmol/mg/min; Max. specific activity, OHB [2, 8]: 0.04 µmol/mg/min; Effect of mutation on activity and/or specificity for OHB (in words) [2]: increased activity and/or specificity for OHB
B3	–	–	Max. specific activity, Natural substrate [1, 7]: 1.39 µmol/mg/min; Max. specific activity, OHB [2, 8]: 0.19 µmol/mg/min; Effect of mutation on activity and/or specificity for OHB (in words) [2]: increased activity and/or specificity for OHB
B4	–	–	Max. specific activity, Natural substrate [1, 5]: 1.3 µmol/mg/min; Max. specific activity, OHB [2, 6]: 0.055 µmol/mg/min; OHB decarboxylase activity (in words) [2]: significant OHB decarboxylase activity
B5	0.13	0.06	activity on malate ([3]; text of Example 2): 0.13 µmol/mg/min; maximum activity on DHB ([4]; text of Example 2): 0.06 µmol/mg/min
B6	–	–	Max. specific activity, Natural substrate ([3]; natural substrate (L)-malate, Table 2): 52.5 µmol/mg/min; DHB dehydrogenase activity (in words) ([4]; cytosolic wild-type enzymes): no measurable DHB dehydrogenase activity; Max. specific activity, DHB ([4]; when not saturated, activity estimated at 50 mM substrate, Table 2): 0 µmol/mg/min
B7	0.66	2.5	–
B8	0.42	0.79	–
B9	0.57	2.98	–
B10	0.12	0.3	–
B11	0.91	10.3	–
B12	0.52	2.1	–
B13	0.98	7.1	–
B14	0.64	2.51	Km ([3]; read-out: Km, malate, Table 4): 4 mM; Km ([4]; ns = not saturated at concentrations of up to 100 mM, Table 4): 25 mM
B15	0.65	2.38	–
